Assay results from publication PMC3343699.
Where two headings read alike, the source gives them in different places.

How the values were obtained:
[1] = biological target: Recombinant Aα392–503 fragment corresponding to the N-terminal subdomain of the human fibrinogen αC-domain (human); assay: optical trap-based force spectroscopy
[2] = biological target: Recombinant Aα221–391 fragment corresponding to the human fibrinogen αC-connector (human); assay: optical trap-based force spectroscopy
[3] = biological target: Lys429Cys/Thr463Cys double mutant of the bovine Aα406–483 fragment, first fraction (Fr-1) (bovine); assay: SEC
[4] = biological target: Lys429Cys/Thr463Cys double mutant of the bovine Aα406–483 fragment, first fraction (Fr-1) (bovine); assay: SEC; remark: listed apart in the source
[5] = biological target: Lys429Cys/Thr463Cys double mutant of the bovine Aα406–483 fragment, first fraction (Fr-1) (bovine); assay: SEC; remark: listed apart in the source

**Q.** “Recombinant Aα392–503 fragment corresponding to the N-terminal subdomain of the human fibrinogen αC-domain (domain or fragment)” was tested. Which cumulative binding probability [1] did it give?
**A.** 67%

**Q.** And the rupture force peak 1 [1]?
**A.** 16 pN

**Q.** What about the rupture force peak 2 [1] of the same substance?
**A.** 32 pN

**Q.** What about the rupture force peak 3 [1] of the same substance?
**A.** 48 pN

**Q.** With “Recombinant Aα392–610 fragment corresponding to the human fibrinogen αC-domain (domain or fragment)” as the substance, how does the cumulative binding probability [2] read?
**A.** 51%

**Q.** And the rupture force peak [2]?
**A.** 22 pN

**Q.** Which results are given for “Lys429Cys/Thr463Cys double mutant of the bovine Aα406–483 fragment, first fraction (Fr-1) (domain or fragment)”?
**A.** oligomers (%) [3]: 31.7%; oligomers (%) [4]: 5.9%; oligomers (%) [5]: 12.4%

**Q.** With “Recombinant Aα504–610 fragment corresponding to the C-terminal subdomain of the human fibrinogen αC-domain (domain or fragment)” as the substance, how does the cumulative binding probability [2] read?
**A.** 46%

**Q.** What about the rupture force peak [2] of the same substance?
**A.** 26 pN
